Patent US20240238380A1 (YUHAN, published 2024)

B1: FM9-2 + Fc_hole long-acting GDF15 fusion protein (dimer) (Fc fusion)
chain 1: APEAAGGPSVFLFPPKPKDTLMISRTPEVTCVVVDVSHEDPEVKFNWYVDGVEVHNAKTKPREEQYASTYRVVSVLTVLHQDWLNGKEYKCKVSNKALPAPIEKTISKAKGQPREPQVYTLPPSREEMTKNQVSLWCLVKGFYPSDIAVEWESNGQPENNYKTTPPVLDSDGSFFLYSKLTVDKSRWQQGNVFSCSVMHEALHNHYTQKSLSLSPGKGSGGGGSGGGGSGGGGSGGGGSGGGGSNGDHCPLGPGRCCRLHTVRASLEDLGWADWVLSPREVQVTMCIGACPSQFRAANMHAQIKTRLHRLKPDTVPAPCCVPASYNPMVLIQKTDTGVSLQTYDDLLAKDCHCI
chain 2: APEAAGGPSVFLFPPKPKDTLMISRTPEVTCVVVDVSHEDPEVKFNWYVDGVEVHNAKTKPREEQYASTYRVVSVLTVLHQDWLNGKEYKCKVSNKALPAPIEKTISKAKGQPREPQVYTLPPSREEMTKNQVSLSCAVKGFYPSDIAVEWESNGQPENNYKTTPPVLDSDGSFFLVSKLTVDKSRWQQGNVFSCSVMHEALHNHYTQKSLSLSPGK
B2: FM9-4 + Fc_hole long-acting GDF15 fusion protein (dimer) (Fc fusion)
chain 1: APEAAGGPSVFLFPPKPKDTLMISRTPEVTCVVVDVSHEDPEVKFNWYVDGVEVHNAKTKPREEQYASTYRVVSVLTVLHQDWLNGKEYKCKVSNKALPAPIEKTISKAKGQPREPQVYTLPPSREEMTKNQVSLWCLVKGFYPSDIAVEWESNGQPENNYKTTPPVLDSDGSFFLYSKLTVDKSRWQQGNVFSCSVMHEALHNHYTQKSLSLSPGKGSEEEAEEEAEEEAEEEAEEEAEEEANGDHCPLGPGRCCRLHTVRASLEDLGWADWVLSPREVQVTMCIGACPSQFRAANMHAQIKTRLHRLKPDTVPAPCCVPASYNPMVLIQKTDTGVSLQTYDDLLAKDCHCI
chain 2: B1 chain 2
B3: FM9-3 + Fc_hole long-acting GDF15 fusion protein (dimer) (Fc fusion)
chain 1: APEAAGGPSVFLFPPKPKDTLMISRTPEVTCVVVDVSHEDPEVKFNWYVDGVEVHNAKTKPREEQYASTYRVVSVLTVLHQDWLNGKEYKCKVSNKALPAPIEKTISKAKGQPREPQVYTLPPSREEMTKNQVSLWCLVKGFYPSDIAVEWESNGQPENNYKTTPPVLDSDGSFFLYSKLTVDKSRWQQGNVFSCSVMHEALHNHYTQKSLSLSPGKGSGGGGSGGGGSGGGGSGGGGSGGGGSGGGGSGGGGSNGDHCPLGPGRCCRLHTVRASLEDLGWADWVLSPREVQVTMCIGACPSQFRAANMHAQIKTRLHRLKPDTVPAPCCVPASYNPMVLIQKTDTGVSLQTYDDLLAKDCHCI
chain 2: B1 chain 2

biological target: GFRAL/RET overexpressed on HEK293 cells (GFRAL/RET/SRE-luc-overexpressing HEK293 cell line) (UniProt Q6UXV0 19-394; P07949 29-1114, limits assumed); assay: cell-based or functional assay
Sequence (Q6UXV0 19-394 limits assumed, chain 1 of 2): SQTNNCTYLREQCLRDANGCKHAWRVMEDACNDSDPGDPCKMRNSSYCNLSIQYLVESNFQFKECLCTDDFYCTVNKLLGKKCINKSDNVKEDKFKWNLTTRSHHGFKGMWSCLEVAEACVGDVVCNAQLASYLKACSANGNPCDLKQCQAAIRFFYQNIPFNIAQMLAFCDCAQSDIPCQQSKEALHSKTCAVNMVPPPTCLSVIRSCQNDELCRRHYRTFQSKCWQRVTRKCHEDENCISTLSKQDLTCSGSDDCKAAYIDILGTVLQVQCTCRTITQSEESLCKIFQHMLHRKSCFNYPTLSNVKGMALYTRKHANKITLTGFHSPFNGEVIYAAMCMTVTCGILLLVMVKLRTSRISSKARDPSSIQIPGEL
Sequence (P07949 29-1114 limits assumed, chain 2 of 2): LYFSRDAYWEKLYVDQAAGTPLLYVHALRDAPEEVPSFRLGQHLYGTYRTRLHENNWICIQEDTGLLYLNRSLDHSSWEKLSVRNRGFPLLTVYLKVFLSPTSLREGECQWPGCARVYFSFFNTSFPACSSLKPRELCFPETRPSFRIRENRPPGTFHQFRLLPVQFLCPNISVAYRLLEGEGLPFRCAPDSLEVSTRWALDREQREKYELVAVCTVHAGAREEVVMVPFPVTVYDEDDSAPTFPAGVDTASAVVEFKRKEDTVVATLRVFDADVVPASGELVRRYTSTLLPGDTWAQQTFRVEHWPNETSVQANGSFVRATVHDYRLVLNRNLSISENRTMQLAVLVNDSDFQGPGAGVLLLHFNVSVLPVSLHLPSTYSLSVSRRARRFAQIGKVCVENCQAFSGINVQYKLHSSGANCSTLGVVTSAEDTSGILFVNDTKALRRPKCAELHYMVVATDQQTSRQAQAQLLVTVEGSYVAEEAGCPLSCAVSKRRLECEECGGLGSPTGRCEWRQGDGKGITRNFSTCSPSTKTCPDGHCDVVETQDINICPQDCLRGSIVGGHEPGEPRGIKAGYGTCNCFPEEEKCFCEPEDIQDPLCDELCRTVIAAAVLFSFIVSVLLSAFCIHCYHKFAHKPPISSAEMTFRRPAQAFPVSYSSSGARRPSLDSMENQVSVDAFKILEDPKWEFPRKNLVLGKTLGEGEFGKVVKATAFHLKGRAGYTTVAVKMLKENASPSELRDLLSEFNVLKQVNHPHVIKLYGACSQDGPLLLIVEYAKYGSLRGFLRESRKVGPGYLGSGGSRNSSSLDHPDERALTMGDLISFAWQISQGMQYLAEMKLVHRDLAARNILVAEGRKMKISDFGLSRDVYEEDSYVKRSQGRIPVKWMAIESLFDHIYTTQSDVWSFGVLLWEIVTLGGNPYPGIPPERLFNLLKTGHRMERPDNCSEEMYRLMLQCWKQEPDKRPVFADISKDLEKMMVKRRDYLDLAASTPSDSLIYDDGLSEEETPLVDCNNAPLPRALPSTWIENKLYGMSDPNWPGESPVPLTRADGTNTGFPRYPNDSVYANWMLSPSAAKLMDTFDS

EC50 (nM), SRE-luciferase reporter (RLU) [nM]	Emax (%), SRE-luciferase reporter (RLU), relative to FM9-6+Fc_hole [%]	Binder
9.5	111	B1
23.6	128	B2
9.3	95.6	B3
